Assay results as given in PMC7327498, “Structural basis of semaphorin‐plexin cis interaction” (The EMBO Journal, 2020).

T1: PlexA‐mClover (Drosophila melanogaster, UniProt Q9V491 28-1311)
T1 construct: Plexin A (PlexA), Drosophila melanogaster, residues 28–1,311: ectodomain followed by a transmembrane segment; not the purified PlexA‐mClover (residues 67–1,274) used as donor-only control in solution; also called FRET donor PlexA‐mClover; source: COS-7, transiently transfected, on live cells; not shown: mClover, C-terminal, kept
T1 sequence (looked up): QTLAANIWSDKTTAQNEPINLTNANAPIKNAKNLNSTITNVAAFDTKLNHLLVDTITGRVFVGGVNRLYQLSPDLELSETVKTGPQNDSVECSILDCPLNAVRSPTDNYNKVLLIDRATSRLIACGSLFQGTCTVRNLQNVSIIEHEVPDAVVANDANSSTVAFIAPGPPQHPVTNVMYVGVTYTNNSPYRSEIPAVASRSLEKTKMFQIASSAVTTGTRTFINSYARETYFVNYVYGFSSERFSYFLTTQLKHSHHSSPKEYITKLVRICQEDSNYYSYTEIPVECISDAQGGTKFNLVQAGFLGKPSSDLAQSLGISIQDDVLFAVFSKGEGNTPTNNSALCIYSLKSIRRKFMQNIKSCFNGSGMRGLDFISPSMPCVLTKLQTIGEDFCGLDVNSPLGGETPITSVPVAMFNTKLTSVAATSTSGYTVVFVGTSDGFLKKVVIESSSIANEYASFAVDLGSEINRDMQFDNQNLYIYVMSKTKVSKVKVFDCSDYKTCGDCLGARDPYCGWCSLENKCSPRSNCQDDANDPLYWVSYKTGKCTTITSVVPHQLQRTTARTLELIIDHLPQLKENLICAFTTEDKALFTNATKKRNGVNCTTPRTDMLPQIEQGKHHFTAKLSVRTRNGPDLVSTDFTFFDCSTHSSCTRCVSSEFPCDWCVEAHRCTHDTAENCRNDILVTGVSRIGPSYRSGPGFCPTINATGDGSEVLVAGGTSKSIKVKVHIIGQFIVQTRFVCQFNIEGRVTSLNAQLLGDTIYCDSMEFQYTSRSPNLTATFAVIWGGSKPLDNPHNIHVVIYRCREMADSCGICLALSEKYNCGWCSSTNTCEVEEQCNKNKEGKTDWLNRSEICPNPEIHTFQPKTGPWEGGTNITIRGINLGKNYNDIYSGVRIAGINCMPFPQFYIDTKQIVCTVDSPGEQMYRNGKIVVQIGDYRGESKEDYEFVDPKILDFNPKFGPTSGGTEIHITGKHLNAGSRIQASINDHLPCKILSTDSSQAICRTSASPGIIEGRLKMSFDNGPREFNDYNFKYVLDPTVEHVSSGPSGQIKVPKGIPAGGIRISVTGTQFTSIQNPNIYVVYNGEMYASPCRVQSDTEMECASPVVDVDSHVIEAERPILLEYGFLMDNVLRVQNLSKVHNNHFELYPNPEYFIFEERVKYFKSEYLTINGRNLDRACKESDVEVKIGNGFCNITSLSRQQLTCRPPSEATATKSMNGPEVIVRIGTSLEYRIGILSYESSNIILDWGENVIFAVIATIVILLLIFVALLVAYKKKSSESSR

T2: PlexA1‐4‐mVenus (Drosophila melanogaster, UniProt Q9V491 28-730)
T2 construct: Plexin A (PlexA), Drosophila melanogaster, domains 1-4, residues 28–730; monoVenus follows PlexA1-4 and is followed by the His6 tag; source: HEK 293T, transient transfection, purified (HisTrap, SEC); not shown: mVenus, C-terminal, kept
T2 sequence (looked up): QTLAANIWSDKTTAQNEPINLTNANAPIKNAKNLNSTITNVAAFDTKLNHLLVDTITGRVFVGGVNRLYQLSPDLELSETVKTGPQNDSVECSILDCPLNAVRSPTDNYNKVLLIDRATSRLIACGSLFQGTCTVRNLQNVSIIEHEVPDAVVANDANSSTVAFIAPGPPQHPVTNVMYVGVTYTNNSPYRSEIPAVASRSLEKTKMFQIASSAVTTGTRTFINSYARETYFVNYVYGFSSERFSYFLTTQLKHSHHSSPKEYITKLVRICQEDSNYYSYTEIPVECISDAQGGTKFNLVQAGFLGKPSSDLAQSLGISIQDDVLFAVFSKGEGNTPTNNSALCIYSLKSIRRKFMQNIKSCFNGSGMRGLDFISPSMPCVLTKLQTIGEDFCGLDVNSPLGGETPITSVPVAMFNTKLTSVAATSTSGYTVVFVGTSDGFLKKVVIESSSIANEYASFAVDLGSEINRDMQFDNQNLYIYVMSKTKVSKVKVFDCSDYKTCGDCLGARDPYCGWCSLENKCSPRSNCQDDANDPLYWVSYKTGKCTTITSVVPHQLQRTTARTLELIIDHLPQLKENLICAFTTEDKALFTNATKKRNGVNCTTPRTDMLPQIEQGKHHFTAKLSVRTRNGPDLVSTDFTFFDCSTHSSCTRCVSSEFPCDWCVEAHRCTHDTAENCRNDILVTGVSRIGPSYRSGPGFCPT


Experiments:
[1] = molecular target: PlexA_(ecto) (Drosophila melanogaster) (UniProt Q9V491); test: AUC; sedimentation velocity, 15 mM HEPES pH 7.4, 150 mM NaCl, 40,000 rpm; PlexA1‐4 at 33 μM, PlexA_(ecto) at 2.2 μM
[2] = molecular target: T1, PlexA‐mClover; test: FRET or BRET; FRET-FLIM in live COS-7 cells transiently co-transfected with PlexA‐mClover (donor) and semaphorin‐mRuby2 (acceptor), cis on one cell surface, 37°C; donor alone τav 2.72 ± 0.03 ns; details: partners not purified
[3] = molecular target: T2, PlexA1‐4‐mVenus; test: MST; fluorescent PlexA1‐4‐mVenus kept constant, unlabelled Sema1b_(ecto) or mutants titrated; 28°C, 15 mM HEPES pH 7.4, 150 mM NaCl, 2 mM CaCl2, 0.05% Tween‐20; 80% MST power; details: both partners purified

| stoichiometry N [1] | average donor lifetime (τav) [2] [ns] | average fraction of the interacting donor (fD) [2] | binding result [3] | Molecule |
| --- | --- | --- | --- | --- |
| < 4 |  |  |  | PlexA_(ecto) (from UniProt Q9V491 28-1272) (domain or fragment) |
|  | 2.53 ± 0.04 | 0.21 ± 0.07 |  | Sema1b‐mutB‐mRuby2 (ligand, Drosophila melanogaster, UniProt Q7KK54 37-686, looked up, Semaphorin 1b (Sema1b), Drosophila melanogaster, residues 37–686, loop 350–367 replaced by alanines; source: COS-7, transiently transfected, on live cells; not shown: mRuby2, C-terminal, kept) DVKPDLQTKQDKVLAHFIGNSTDYFKILDHNDEFVLVGAKDVIYNVSLNGLKEIARLEWHSTDADRELCALKGKHEWDCHNYLRVYALRPNGEVLLCGTNSYKPRCRHYTPVEVSSEEAGSAGHAHAMRYEVSRDVEAQGLCPYSPAHNSTYAFADGHLYSATVADFSGGDPLIYRENLRTEQYDLKQLNQPDFVGAIERNGYVLFFFRELSMEVMNFGKAVYSRVARVCKNDRGGPYSHGKSWTSFLKARLNCSVPGEFPFYFDEIQAISPIVESGSKSLIYAVFTTSVNAIPGSAVCAFNVDDILAAFDGEAAAAAAAAAAAAAAAAAAVPKPRPGQCVEDSRTLTSIAVNFIKNHPLMEEAVPAVHGRPLLTKVNLHHRLTAIAVHPQVKSLSGAYYDVIYSGTDDGKVTKFINILSTHPNSTVDRLKTVVISEMQVLPLGTPIRELVISTSKNSLVVVSDGSLVSVPLHHCSHIVDCLGCLSLQDPICAWDLQTHECKNLATSQHKFGTKTYLQSLNSTKKAAALLCPHIPRDAPGAETVSFVTMAPPPTEEQKLLYSNVGSSQGNQPSLEQQPTGGDDFGLNKITLTSMDPDDIMPNLNDPQKSTASVDEIKYASTPSFMLLTTIVFFTFLVGGIAGICCVKAKS |
|  |  |  | binds | Sema1b_(ecto)‐mutA (domain or fragment, Drosophila melanogaster, UniProt Q7KK54 37-659, looked up, Semaphorin 1b (Sema1b), Drosophila melanogaster, ectodomain, residues 37–659, site A mutant; also called Sema1b‐mutA; Sema1b‐mutant A; source: HEK 293T, transient transfection, purified (HisTrap, SEC)) DVKPDLQTKQDKVLAHFIGNSTDYFKILDHNDEFVLVGAKDVIYNVSLNGLKEIARLEWHSTDADRELCALKGKHEWDCHNYLRVYALRPNGEVLLCGTNSYKPRCRHYTPVEVSSEEAGSAGHAHAMRYEVSRDVEAQGLCPYSPAHNSTYAFADGHLYSATVADESGGDPLIYRENLRTERYDLEQLNQPDFVGAIERNGYVLFFFRELSMEVMNFGKAVYSRVARVCKNDRGGPYSHGKSWTSFLKARLNCSVPGEFPFYFDEIQAISPIVESGSKSLIYAVFTTSVNAIPGSAVCAFNVDDILAAFDGEFKSQKDSQSHWLPVEREQVPKPRPGQCVEDSRTLTSIAVNFIKNHPLMEEAVPAVHGRPLLTKVNLHHRLTAIAVHPQVKSLSGAYYDVIYSGTDDGKVTKFINILSTHPNSTVDRLKTVVISEMQVLPLGTPIRELVISTSKNSLVVVSDGSLVSVPLHHCSHIVDCLGCLSLQDPICAWDLQTHECKNLATSQHKFGTKTYLQSLNSTKKAAALLCPHIPRDAPGAETVSFVTMAPPPTEEQKLLYSNVGSSQGNQPSLEQQPTGGDDFGLNKITLTSMDPDDIMPNLNDPQKSTASVDEIKYASTPS |
|  |  |  | binds | Sema1b_(ecto)‐mutB (domain or fragment, Drosophila melanogaster, UniProt Q7KK54 37-659, looked up, Semaphorin 1b (Sema1b), Drosophila melanogaster, ectodomain, residues 37–659, Exβ1‐β2 loop 350–367 replaced by alanines; synthetic clone (Invitrogen-GeneArt); also called Sema1b‐mutB; Sema1b‐mutant B; source: HEK 293T, transient transfection, purified (HisTrap, SEC)) DVKPDLQTKQDKVLAHFIGNSTDYFKILDHNDEFVLVGAKDVIYNVSLNGLKEIARLEWHSTDADRELCALKGKHEWDCHNYLRVYALRPNGEVLLCGTNSYKPRCRHYTPVEVSSEEAGSAGHAHAMRYEVSRDVEAQGLCPYSPAHNSTYAFADGHLYSATVADFSGGDPLIYRENLRTEQYDLKQLNQPDFVGAIERNGYVLFFFRELSMEVMNFGKAVYSRVARVCKNDRGGPYSHGKSWTSFLKARLNCSVPGEFPFYFDEIQAISPIVESGSKSLIYAVFTTSVNAIPGSAVCAFNVDDILAAFDGEAAAAAAAAAAAAAAAAAAVPKPRPGQCVEDSRTLTSIAVNFIKNHPLMEEAVPAVHGRPLLTKVNLHHRLTAIAVHPQVKSLSGAYYDVIYSGTDDGKVTKFINILSTHPNSTVDRLKTVVISEMQVLPLGTPIRELVISTSKNSLVVVSDGSLVSVPLHHCSHIVDCLGCLSLQDPICAWDLQTHECKNLATSQHKFGTKTYLQSLNSTKKAAALLCPHIPRDAPGAETVSFVTMAPPPTEEQKLLYSNVGSSQGNQPSLEQQPTGGDDFGLNKITLTSMDPDDIMPNLNDPQKSTASVDEIKYASTPS |
|  | 2.51 ± 0.06 | 0.26 ± 0.09 |  | Sema1b‐mRuby2 (ligand, Drosophila melanogaster, UniProt Q7KK54 37-686, looked up, Semaphorin 1b (Sema1b), Drosophila melanogaster, residues 37–686: ectodomain followed by a transmembrane segment; also called wild‐type Sema1b‐mRuby2; source: COS-7, transiently transfected, on live cells; not shown: mRuby2, C-terminal, kept) DVKPDLQTKQDKVLAHFIGNSTDYFKILDHNDEFVLVGAKDVIYNVSLNGLKEIARLEWHSTDADRELCALKGKHEWDCHNYLRVYALRPNGEVLLCGTNSYKPRCRHYTPVEVSSEEAGSAGHAHAMRYEVSRDVEAQGLCPYSPAHNSTYAFADGHLYSATVADFSGGDPLIYRENLRTEQYDLKQLNQPDFVGAIERNGYVLFFFRELSMEVMNFGKAVYSRVARVCKNDRGGPYSHGKSWTSFLKARLNCSVPGEFPFYFDEIQAISPIVESGSKSLIYAVFTTSVNAIPGSAVCAFNVDDILAAFDGEFKSQKDSQSHWLPVEREQVPKPRPGQCVEDSRTLTSIAVNFIKNHPLMEEAVPAVHGRPLLTKVNLHHRLTAIAVHPQVKSLSGAYYDVIYSGTDDGKVTKFINILSTHPNSTVDRLKTVVISEMQVLPLGTPIRELVISTSKNSLVVVSDGSLVSVPLHHCSHIVDCLGCLSLQDPICAWDLQTHECKNLATSQHKFGTKTYLQSLNSTKKAAALLCPHIPRDAPGAETVSFVTMAPPPTEEQKLLYSNVGSSQGNQPSLEQQPTGGDDFGLNKITLTSMDPDDIMPNLNDPQKSTASVDEIKYASTPSFMLLTTIVFFTFLVGGIAGICCVKAKS |
|  | 2.43 ± 0.1 | 0.37 ± 0.15 |  | Sema1b‐mutA‐mRuby2 (ligand, Drosophila melanogaster, UniProt Q7KK54 37-686, looked up, Semaphorin 1b (Sema1b), Drosophila melanogaster, residues 37–686, site A mutant; source: COS-7, transiently transfected, on live cells; not shown: mRuby2, C-terminal, kept) DVKPDLQTKQDKVLAHFIGNSTDYFKILDHNDEFVLVGAKDVIYNVSLNGLKEIARLEWHSTDADRELCALKGKHEWDCHNYLRVYALRPNGEVLLCGTNSYKPRCRHYTPVEVSSEEAGSAGHAHAMRYEVSRDVEAQGLCPYSPAHNSTYAFADGHLYSATVADESGGDPLIYRENLRTERYDLEQLNQPDFVGAIERNGYVLFFFRELSMEVMNFGKAVYSRVARVCKNDRGGPYSHGKSWTSFLKARLNCSVPGEFPFYFDEIQAISPIVESGSKSLIYAVFTTSVNAIPGSAVCAFNVDDILAAFDGEFKSQKDSQSHWLPVEREQVPKPRPGQCVEDSRTLTSIAVNFIKNHPLMEEAVPAVHGRPLLTKVNLHHRLTAIAVHPQVKSLSGAYYDVIYSGTDDGKVTKFINILSTHPNSTVDRLKTVVISEMQVLPLGTPIRELVISTSKNSLVVVSDGSLVSVPLHHCSHIVDCLGCLSLQDPICAWDLQTHECKNLATSQHKFGTKTYLQSLNSTKKAAALLCPHIPRDAPGAETVSFVTMAPPPTEEQKLLYSNVGSSQGNQPSLEQQPTGGDDFGLNKITLTSMDPDDIMPNLNDPQKSTASVDEIKYASTPSFMLLTTIVFFTFLVGGIAGICCVKAKS |
